Results from article PMC3152347.
Where two headings read alike, the source gives them in different places.

T1: endogenous HSF1 of CEM-GFP cells (human (endogenous in CEM-GFP)), Q00613
T1 chain: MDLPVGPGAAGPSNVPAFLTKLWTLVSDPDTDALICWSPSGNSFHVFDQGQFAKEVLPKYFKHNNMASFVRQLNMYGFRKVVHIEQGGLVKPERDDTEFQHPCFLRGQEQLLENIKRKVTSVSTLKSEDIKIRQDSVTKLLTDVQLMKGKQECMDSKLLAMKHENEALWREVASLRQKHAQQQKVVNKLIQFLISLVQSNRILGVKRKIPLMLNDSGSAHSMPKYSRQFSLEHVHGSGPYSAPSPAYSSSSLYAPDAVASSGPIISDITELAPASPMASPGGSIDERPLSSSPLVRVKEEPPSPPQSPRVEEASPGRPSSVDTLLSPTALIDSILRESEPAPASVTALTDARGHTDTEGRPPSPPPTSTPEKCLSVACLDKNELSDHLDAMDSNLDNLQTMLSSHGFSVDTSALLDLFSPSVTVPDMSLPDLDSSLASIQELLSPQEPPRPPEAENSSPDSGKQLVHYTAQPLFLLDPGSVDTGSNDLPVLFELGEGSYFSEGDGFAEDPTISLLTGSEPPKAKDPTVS


Legend:
[1] = target: T2, His-HSF1 (human, UniProt Q00613 1-529); assay: EMSA
[2] = target: T1, endogenous HSF1 of CEM-GFP cells (human …); assay: cross-linking; conditions: remark: other sources report otherwise
[3] = target: T2, His-HSF1; assay: EMSA; remark: listed apart in the source

| Binder | binding result [1] | other results |
| --- | --- | --- |
| P4 (2nd and 3rd Sp1 site) (dsDNA) DNA 1: GGGAGGTGTGGCCTGGGCGGGAC DNA 2: GTCCCGCCCAGGCCACACCTCCC | no binding | – |
| endogenous HSF1 of CEM-GFP cells, Q00613 1-529 (natural protein) MDLPVGPGAAGPSNVPAFLTKLWTLVSDPDTDALICWSPSGNSFHVFDQGQFAKEVLPKYFKHNNMASFVRQLNMYGFRKVVHIEQGGLVKPERDDTEFQHPCFLRGQEQLLENIKRKVTSVSTLKSEDIKIRQDSVTKLLTDVQLMKGKQECMDSKLLAMKHENEALWREVASLRQKHAQQQKVVNKLIQFLISLVQSNRILGVKRKIPLMLNDSGSAHSMPKYSRQFSLEHVHGSGPYSAPSPAYSSSSLYAPDAVASSGPIISDITELAPASPMASPGGSIDERPLSSSPLVRVKEEPPSPPQSPRVEEASPGRPSSVDTLLSPTALIDSILRESEPAPASVTALTDARGHTDTEGRPPSPPPTSTPEKCLSVACLDKNELSDHLDAMDSNLDNLQTMLSSHGFSVDTSALLDLFSPSVTVPDMSLPDLDSSLASIQELLSPQEPPRPPEAENSSPDSGKQLVHYTAQPLFLLDPGSVDTGSNDLPVLFELGEGSYFSEGDGFAEDPTISLLTGSEPPKAKDPTVS | – | stoichiometry N [2]: 3 |
| P2 (NF-kB and 3rd Sp1 site, LTR -91 to -69) (dsDNA) DNA 1: GGGACTTTCCAGGGAGGTGTGGC DNA 2: GCCACACCTCCCTGGAAAGTCCC | – | binding result [3]: binds |
| P3 (1st and 2nd Sp1 site) (dsDNA) DNA 1: TGGGCGGGACTGGGGAGTGGCG DNA 2: CGCCACTCCCCAGTCCCGCCCA | no binding | – |
| P1 (both NF-kB sites of LTR) (dsDNA) DNA 1: GGGACTTTCCGCTGGGGACTTTCC DNA 2: GGAAAGTCCCCAGCGGAAAGTCCC | no binding | – |
